We go through 1 molecule from patent publication US20250388893A1 (HUAZHONG AGRICULTURAL UNIVERSITY, published 2025).

The assay concerns the target T1, GAL4 DNA binding domain (UniProt P04386 1-147).
T1 construct: Residues read through from the cloning site are not described; also called BD
The assay is described as follows: yeast two-hybrid, growth on SD/-Trp/-Leu/-Ade/-His; empty vector.

T1 sequence (P04386 1-147 limits assumed): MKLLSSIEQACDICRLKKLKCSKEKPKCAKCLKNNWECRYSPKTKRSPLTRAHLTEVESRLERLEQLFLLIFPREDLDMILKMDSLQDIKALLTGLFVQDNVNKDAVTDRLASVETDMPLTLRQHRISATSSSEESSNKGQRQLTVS

B1: GAL4 activation domain (other, UniProt P04386 768-881, looked up)
chain: ANFNQSGNIADSSLSFTFTNSSNGPNLITTQTNSQALSQPIASSNVHDNFMNNEITASKIDDGNNSKPLSPGWTDQTAYNAFGITTGMFNTTTMDDVYNYLFDDEDTPPNPKKE
notes: Residues read through from the cloning site are not described; also called AD
For B1, the binding result was “no binding”.
